Test results as given in patent US20140099324A1 (University of Texas, published 2014).

What was measured:
[1] = target: HERV-K recombinant fusion protein K10Q18 (K-SU in pQE30, N-terminal 6-His) (human endogenous retrovirus K); assay: flow cytometry on dendritic cells pulsed with the protein
[2] = target: T1, HERV-K env protein expressed endogenously by human cancer cell lines (human endogenous retrovirus K); assay: cell-based or functional assay
T1 chain: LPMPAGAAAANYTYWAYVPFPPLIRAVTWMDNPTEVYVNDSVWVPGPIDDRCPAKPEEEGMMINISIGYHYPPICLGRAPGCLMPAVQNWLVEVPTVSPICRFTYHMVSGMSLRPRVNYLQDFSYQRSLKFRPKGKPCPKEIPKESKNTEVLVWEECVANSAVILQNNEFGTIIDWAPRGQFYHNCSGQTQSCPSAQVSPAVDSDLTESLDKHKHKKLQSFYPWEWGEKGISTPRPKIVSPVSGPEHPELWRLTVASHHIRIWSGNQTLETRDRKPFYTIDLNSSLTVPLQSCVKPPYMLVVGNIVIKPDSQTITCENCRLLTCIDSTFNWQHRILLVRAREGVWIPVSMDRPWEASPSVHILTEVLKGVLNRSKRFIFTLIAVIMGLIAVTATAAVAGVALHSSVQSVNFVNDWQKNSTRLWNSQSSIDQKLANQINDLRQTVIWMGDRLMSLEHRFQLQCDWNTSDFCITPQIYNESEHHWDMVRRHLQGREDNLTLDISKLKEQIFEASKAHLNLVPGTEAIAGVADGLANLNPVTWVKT

anti-RGS monoclonal antibody (Qiagen)
percent of DCs positive [1]: > 70%

B1: anti-HERV-K env monoclonal antibody 6H5 (antibody, V domains shown)
VH: MAQVKLQQSGPDLVKPGASVKISCKASGYSFTGYYMHWVKQSHGKSLEWIGRVNPNSGGTSYNQKFKDKAILTVDKSSSTAYMELRSLTSEDSAVYYCARSKGNYFYAMDY
VL: ASLAVSLGQRATISCRASESVDSHGTSFMHWYQQKPGQPPKFLIYRASNLESGIPARFSGSGSRTDFTLTINPVETDDVAIYYCQQSNEDPPTFGGGTKLEIK
IC50, cytotoxicity toward MCF-7 breast cancer cells (72 h, crystal violet) [2]: 51.7 nM
IC50, cytotoxicity toward MDA-MB-231 breast cancer cells (72 h, crystal violet) [2]: 6.6 nM
